# From USRE48558 (Genentech, dated 2021)
# T1: extracellular domain of human CD79b (human, UniProt P40259 29-159)
# T1 construct: also called huCD79becd; huCD79b-ecd
# T1 sequence: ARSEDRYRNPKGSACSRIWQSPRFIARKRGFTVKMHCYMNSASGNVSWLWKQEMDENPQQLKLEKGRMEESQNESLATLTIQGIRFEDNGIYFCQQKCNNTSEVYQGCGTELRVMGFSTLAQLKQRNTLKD
# Target: T1, extracellular domain of human CD79b
# Assay: phage selection, Fab on phage, plate-bound huCD79becd
row,Binder,binding result
1,"huMA79b graft variant SEQ ID NO: 17 (Fab, name in Kabat numbering, V domains shown, Fab on phage; rest as huMA79b graft; also called SPL-2 mutation) VH: EVQLVESGGGLVQPGGSLRLSCAASGYTFSSYWIEWVRQAPGKGLEWVGEILPGGGDTNYNEIFKGRFTISADTSKNTAYLQMNSLRAEDTAVYYCTRRVPVYFDYWGQGTLVTVSS VL: DIQMTQSPSSLSASVGDRVTITCKASKSVDYDGDSFLNWYQQKPGKAPKLLIYAASNLESGVPSRFSGSGSGTDFTLTISSLQPEDFATYYCQQSNEDPLTFGQGTKVEIKR",binds
2,"huMA79b graft variant SEQ ID NO: 34 (Fab, name in Kabat numbering, V domains shown, Fab on phage; rest as huMA79b graft) VH: EVQLVESGGGLVQPGGSLRLSCAASGYTFSSYWIEWVRQAPGKGLEWVGEILPGGGDTNYNEIFKGRFTISADTSKNTAYLQMNSLRAEDTAVYYCTRRVPVYFDYWGQGTLVTVSS VL: DIQMTQSPSSLSASVGDRVTITCKASQSVDYDGDSFLNWYQQKPGKAPKLLIYAGSKLLRGVPSRFSGSGSGTDFTLTISSLQPEDFATYYCQQSNEDPLTFGQGTKVEIKR",binds
3,"huMA79b graft variant SEQ ID NO: 18 (Fab, name in Kabat numbering, V domains shown, Fab on phage; rest as huMA79b graft) VH: EVQLVESGGGLVQPGGSLRLSCAASGYTFSSYWIEWVRQAPGKGLEWVGEILPGGGDTNYNEIFKGRFTISADTSKNTAYLQMNSLRAEDTAVYYCTRRVPVYFDYWGQGTLVTVSS VL: DIQMTQSPSSLSASVGDRVTITCKASQSVDYDGDSFLNWYQQKPGKAPKLLIYAASNRESGVPSRFSGSGSGTDFTLTISSLQPEDFATYYCQQSNEDPLTFGQGTKVEIKR",binds
4,"huMA79b graft variant SEQ ID NO: 32 (Fab, name in Kabat numbering, V domains shown, Fab on phage; rest as huMA79b graft) VH: EVQLVESGGGLVQPGGSLRLSCAASGYTFSSYWIEWVRQAPGKGLEWVGEILPGGGDTNYNEIFKGRFTISADTSKNTAYLQMNSLRAEDTAVYYCTRRVPVYFDYWGQGTLVTVSS VL: DIQMTQSPSSLSASVGDRVTITCKASQSVDYDGDSFLNWYQQKPGKAPKLLIYAARHLKRGVPSRFSGSGSGTDFTLTISSLQPEDFATYYCQQSNEDPLTFGQGTKVEIKR",binds
5,"huMA79b graft variant SEQ ID NO: 29 (Fab, name in Kabat numbering, V domains shown, Fab on phage; rest as huMA79b graft) VH: EVQLVESGGGLVQPGGSLRLSCAASGYTFSSYWIEWVRQAPGKGLEWVGEILPGGGDTNYNEIFKGRFTISADTSKNTAYLQMNSLRAEDTAVYYCTRRVPVYFDYWGQGTLVTVSS VL: DIQMTQSPSSLSASVGDRVTITCKASQSVDYDGDSFLNWYQQKPGKAPKLLIYAAGILARGVPSRFSGSGSGTDFTLTISSLQPEDFATYYCQQSNEDPLTFGQGTKVEIKR",binds
6,"huMA79b graft variant SEQ ID NO: 20 (Fab, name in Kabat numbering, V domains shown, Fab on phage; rest as huMA79b graft; also called SPL-5 mutation) VH: EVQLVESGGGLVQPGGSLRLSCAASGYTFSSYWIEWVRQAPGKGLEWVGEILPGGGDTNYNEIFKGRFTISADTSKNTAYLQMNSLRAEDTAVYYCTRRVPVYFDYWGQGTLVTVSS VL: DIQMTQSPSSLSASVGDRVTITCKASQSVDYDGDSFLNWYQQKPGKAPKLLIYAASNLESGVPSRFSGSGSGTDFTLTISSLQPEDFATYYCQQSNSDPLTFGQGTKVEIKR",binds
7,"huMA79b graft variant SEQ ID NO: 21 (Fab, name in Kabat numbering, V domains shown, Fab on phage; rest as huMA79b graft) VH: EVQLVESGGGLVQPGGSLRLSCAASGYTFSSYWIEWVRQAPGKGLEWVGEILPGGGDTNYNEIFKGRFTISADTSKNTAYLQMNSLRAEDTAVYYCTRRVPVYFDYWGQGTLVTVSS VL: DIQMTQSPSSLSASVGDRVTITCKASQSVDYDGDSFLNWYQQKPGKAPKLLIYAASNLESGVPSRFSGSGSGTDFTLTISSLQPEDFATYYCQQSNKDPLTFGQGTKVEIKR",binds
8,"huMA79b graft variant SEQ ID NO: 28 (Fab, name in Kabat numbering, V domains shown, Fab on phage; rest as huMA79b graft) VH: EVQLVESGGGLVQPGGSLRLSCAASGYTFSSYWIEWVRQAPGKGLEWVGEILPGGGDTNYNEIFKGRFTISADTSKNTAYLQMNSLRAEDTAVYYCTRRVPVYFDYWGQGTLVTVSS VL: DIQMTQSPSSLSASVGDRVTITCKASQSVDYDGDSFLNWYQQKPGKAPKLLIYAARKLASGVPSRFSGSGSGTDFTLTISSLQPEDFATYYCQQSNEDPLTFGQGTKVEIKR",binds
9,"huMA79b graft variant SEQ ID NO: 30 (Fab, name in Kabat numbering, V domains shown, Fab on phage; rest as huMA79b graft) VH: EVQLVESGGGLVQPGGSLRLSCAASGYTFSSYWIEWVRQAPGKGLEWVGEILPGGGDTNYNEIFKGRFTISADTSKNTAYLQMNSLRAEDTAVYYCTRRVPVYFDYWGQGTLVTVSS VL: DIQMTQSPSSLSASVGDRVTITCKASQSVDYDGDSFLNWYQQKPGKAPKLLIYAARKLRSGVPSRFSGSGSGTDFTLTISSLQPEDFATYYCQQSNEDPLTFGQGTKVEIKR",binds
10,"huMA79b graft variant SEQ ID NO: 23 (Fab, name in Kabat numbering, V domains shown, Fab on phage; rest as huMA79b graft) VH: EVQLVESGGGLVQPGGSLRLSCAASGYTFSSYWIEWVRQAPGKGLEWVGEILPGGGDTNYNEIFKGRFTISADTSKNTAYLQMNSLRAEDTAVYYCTRRVPVYFDYWGQGTLVTVSS VL: DIQMTQSPSSLSASVGDRVTITCKASQSVDYDGDSFLNWYQQKPGKAPKLLIYAASRLESGVPSRFSGSGSGTDFTLTISSLQPEDFATYYCQQSNEDPLTFGQGTKVEIKR",binds
11,"huMA79b graft variant SEQ ID NO: 27 (Fab, name in Kabat numbering, V domains shown, Fab on phage; rest as huMA79b graft) VH: EVQLVESGGGLVQPGGSLRLSCAASGYTFSSYWIEWVRQAPGKGLEWVGEILPGGGDTNYNEIFKGRFTISADTSKNTAYLQMNSLRAEDTAVYYCTRRVPVYFDYWGQGTLVTVSS VL: DIQMTQSPSSLSASVGDRVTITCKASQSVDYDGDSFLNWYQQKPGKAPKLLIYAARKLKSGVPSRFSGSGSGTDFTLTISSLQPEDFATYYCQQSNEDPLTFGQGTKVEIKR",binds
12,"huMA79b graft variant SEQ ID NO: 50 (Fab, name in Kabat numbering, V domains shown, Fab on phage; rest as huMA79b graft) VH: EVQLVESGGGLVQPGGSLRLSCAASGYTFSSYWIEWVRQAPGKGLEWVGEILPGGGDTNYNEIFKGRFTISADTSKNTAYLQMNSLRAEDTAVYYCTRRVPVYFDYWGQGTLVTVSS VL: DIQMTQSPSSLSASVGDRVTITCKASQSVDYDGDSFLNWYQQKPGKAPKLLIYAASNLESGVPSRFSGSGSGTDFTLTISSLQPEDFATYYCQQSNLDPLTFGQGTKVEIKR",binds
13,"huMA79b graft variant SEQ ID NO: 36 (Fab, name in Kabat numbering, V domains shown, Fab on phage; rest as huMA79b graft) VH: EVQLVESGGGLVQPGGSLRLSCAASGYTFSSYWIEWVRQAPGKGLEWVGEILPGGGDTNYNEIFKGRFTISADTSKNTAYLQMNSLRAEDTAVYYCTRRVPVYFDYWGQGTLVTVSS VL: DIQMTQSPSSLSASVGDRVTITCKASQSVDYDGDSFLNWYQQKPGKAPKLLIYAASKLGSGVPSRFSGSGSGTDFTLTISSLQPEDFATYYCQQSNEDPLTFGQGTKVEIKR",binds
14,"huMA79b graft variant SEQ ID NO: 26 (Fab, name in Kabat numbering, V domains shown, Fab on phage; rest as huMA79b graft; also called L2-29 mutation) VH: EVQLVESGGGLVQPGGSLRLSCAASGYTFSSYWIEWVRQAPGKGLEWVGEILPGGGDTNYNEIFKGRFTISADTSKNTAYLQMNSLRAEDTAVYYCTRRVPVYFDYWGQGTLVTVSS VL: DIQMTQSPSSLSASVGDRVTITCKASQSVDYDGDSFLNWYQQKPGKAPKLLIYAARYLKRGVPSRFSGSGSGTDFTLTISSLQPEDFATYYCQQSNEDPLTFGQGTKVEIKR",binds
15,"huMA79b graft variant SEQ ID NO: 31 (Fab, name in Kabat numbering, V domains shown, Fab on phage; rest as huMA79b graft; also called L2-38 mutation) VH: EVQLVESGGGLVQPGGSLRLSCAASGYTFSSYWIEWVRQAPGKGLEWVGEILPGGGDTNYNEIFKGRFTISADTSKNTAYLQMNSLRAEDTAVYYCTRRVPVYFDYWGQGTLVTVSS VL: DIQMTQSPSSLSASVGDRVTITCKASQSVDYDGDSFLNWYQQKPGKAPKLLIYAARKLGSGVPSRFSGSGSGTDFTLTISSLQPEDFATYYCQQSNEDPLTFGQGTKVEIKR",binds
16,"huMA79b graft variant SEQ ID NO: 33 (Fab, name in Kabat numbering, V domains shown, Fab on phage; rest as huMA79b graft) VH: EVQLVESGGGLVQPGGSLRLSCAASGYTFSSYWIEWVRQAPGKGLEWVGEILPGGGDTNYNEIFKGRFTISADTSKNTAYLQMNSLRAEDTAVYYCTRRVPVYFDYWGQGTLVTVSS VL: DIQMTQSPSSLSASVGDRVTITCKASQSVDYDGDSFLNWYQQKPGKAPKLLIYASRYLSRGVPSRFSGSGSGTDFTLTISSLQPEDFATYYCQQSNEDPLTFGQGTKVEIKR",binds
17,"huMA79b graft variant SEQ ID NO: 35 (Fab, name in Kabat numbering, V domains shown, Fab on phage; rest as huMA79b graft) VH: EVQLVESGGGLVQPGGSLRLSCAASGYTFSSYWIEWVRQAPGKGLEWVGEILPGGGDTNYNEIFKGRFTISADTSKNTAYLQMNSLRAEDTAVYYCTRRVPVYFDYWGQGTLVTVSS VL: DIQMTQSPSSLSASVGDRVTITCKASQSVDYDGDSFLNWYQQKPGKAPKLLIYAASNRKSGVPSRFSGSGSGTDFTLTISSLQPEDFATYYCQQSNEDPLTFGQGTKVEIKR",binds
18,"huMA79b graft variant SEQ ID NO: 49 (Fab, name in Kabat numbering, V domains shown, Fab on phage; rest as huMA79b graft) VH: EVQLVESGGGLVQPGGSLRLSCAASGYTFSSYWIEWVRQAPGKGLEWVGEILPGGGDTNYNEIFKGRFTISADTSKNTAYLQMNSLRAEDTAVYYCTRRVPVYFDYWGQGTLVTVSS VL: DIQMTQSPSSLSASVGDRVTITCKASQSVDYDGDSFLNWYQQKPGKAPKLLIYAASNLESGVPSRFSGSGSGTDFTLTISSLQPEDFATYYCQQSNDDPLTFGQGTKVEIKR",binds
19,"huMA79b graft variant SEQ ID NO: 19 (Fab, name in Kabat numbering, V domains shown, Fab on phage; rest as huMA79b graft) VH: EVQLVESGGGLVQPGGSLRLSCAASGYTFSSYWIEWVRQAPGKGLEWVGEILPGGGDTNYNEIFKGRFTISADTSKNTAYLQMNSLRAEDTAVYYCTRRVPVYFDYWGQGTLVTVSS VL: DIQMTQSPSSLSASVGDRVTITCKASQSVDYDGDSFLNWYQQKPGKAPKLLIYAASNLKSGVPSRFSGSGSGTDFTLTISSLQPEDFATYYCQQSNEDPLTFGQGTKVEIKR",binds
20,"huMA79b graft variant SEQ ID NO: 25 (Fab, name in Kabat numbering, V domains shown, Fab on phage; rest as huMA79b graft) VH: EVQLVESGGGLVQPGGSLRLSCAASGYTFSSYWIEWVRQAPGKGLEWVGEILPGGGDTNYNEIFKGRFTISADTSKNTAYLQMNSLRAEDTAVYYCTRRVPVYFDYWGQGTLVTVSS VL: DIQMTQSPSSLSASVGDRVTITCKASQSVDYDGDSFLNWYQQKPGKAPKLLIYAARKLKRGVPSRFSGSGSGTDFTLTISSLQPEDFATYYCQQSNEDPLTFGQGTKVEIKR",binds
21,"huMA79b graft variant SEQ ID NO: 24 (Fab, name in Kabat numbering, V domains shown, Fab on phage; rest as huMA79b graft) VH: EVQLVESGGGLVQPGGSLRLSCAASGYTFSSYWIEWVRQAPGKGLEWVGEILPGGGDTNYNEIFKGRFTISADTSKNTAYLQMNSLRAEDTAVYYCTRRVPVYFDYWGQGTLVTVSS VL: DIQMTQSPSSLSASVGDRVTITCKASQSVDYDGDSFLNWYQQKPGKAPKLLIYAARKLGNGVPSRFSGSGSGTDFTLTISSLQPEDFATYYCQQSNEDPLTFGQGTKVEIKR",binds
